The record followed here is US20140112936A1.

What is called Kd is a measure of binding affinity in units of concentration. Read a high Kd as lower affinity. A word on the koff: it is the first-order rate constant of dissociation. In general, kon refers to the rate constant with which the complex forms. High values mean faster complex formation, low ones slower complex formation.

Assay [1] concerns the target gp41-inter (HIV-1 clade A isolate 92UG037.8). In words: SPR, gp41-inter immobilized on CM5 chip, Fab as analyte, 1:1 Langmuir. In general terms: SPR reads the build-up and loss of mass on a sensor chip optically.
In assay [2] the target is GCN4-gp41-inter (HIV-1 clade A isolate 92UG037.8 (gp41 part)). In words: SPR, GCN4-gp41-inter immobilized on CM5 chip, Fab as analyte, 1:1 Langmuir.
The target of assay [3] is gp41-inter (HIV-1 clade A isolate 92UG037.8). In words: SPR, gp41-inter immobilized on CM5 chip, Fab as analyte, 1:1 Langmuir (single curve).
For assay [4], the target named is GCN4-gp41-inter (HIV-1 clade A isolate 92UG037.8 (gp41 part)). In words: SPR, GCN4-gp41-inter immobilized on CM5 chip, Fab as analyte, 1:1 Langmuir (single curve).

In assay [1], Z13e1 Fab had a Kd of 97.7 nM, a koff of 0.00548 s⁻¹ and a kon of 56000 M⁻¹ s⁻¹. In assay [2], this substance returned a Kd of 34 nM, a koff of 0.00289 s⁻¹ and a kon of 85000 M⁻¹ s⁻¹.

In assay [3], 4E10 Fab showed a Kd of 8.85 nM, a koff of 0.000235 s⁻¹ and an on-rate constant (kon) of 26600 M⁻¹ s⁻¹. In assay [4], this substance yielded a Kd of 4.86 nM, an off-rate constant (koff) of 0.000237 s⁻¹ and a kon of 48800 M⁻¹ s⁻¹.

In the case of 2F5 Fab, in assay [1], the Kd was 0.415 nM, the koff came out at 0.00019 s⁻¹ and the kon was found to be 457000 M⁻¹ s⁻¹. In assay [2], the Kd was 0.317 nM, the koff was 0.000158 s⁻¹ and the on-rate (kon) is 498000 M⁻¹ s⁻¹.
